Patent publication US20190241648A1 (STATEN BIOTECHNOLOGY B V, published 2019)
Ends that are not written are not given here.

Assays:
Assay in all cases: peptide microarray
ApoC3 peptide … F61A = target: T1, ApoC3 peptide … F61A (human, cyclic constrained)
T1 peptide: DKASEFWDLDPEV
In short: (§1)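 ApoC3 peptide microarrays incubated with antibody samples and then stained with goat anti-human IgG (Fc) DyLight680 plus anti-HA DyLight800 control antibody. Scanned at intensity 7/7 (red/green); a secondary-only prestain checked for background, and framing HA peptides served as quality control.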

ApoC3 peptide … K60C = target: T2, ApoC3 peptide … K60C (human, not fully specified (bridges); also: cyclic constrained)
T2 peptide: DCFSEFWDLDPEV
In short: as §1

ApoC3 peptide … F61D = target: T3, ApoC3 peptide … F61D (human, cyclic constrained)
T3 peptide: DKDSEFWDLDPEV
In short: as §1

ApoC3 peptide … F64D = target: T4, ApoC3 peptide … F64D (human, not fully specified (bridges); also: cyclic constrained)
T4 peptide: DKFSEDWDLDPEV
In short: as §1

ApoC3 peptide … W65D = ApoC3 peptide … W65D (human, cyclic constrained)
In short: as §1

ApoC3 peptide … E70D = ApoC3 peptide … E70D (human, cyclic constrained)
In short: as §1

ApoC3 peptide … E63F = ApoC3 peptide … E63F (human, cyclic constrained)
In short: as §1

ApoC3 peptide … F61G = target: T5, ApoC3 peptide … F61G (human, cyclic constrained)
T5 peptide: DKGSEFWDLDPEV
In short: as §1

ApoC3 peptide … E70G = target: T6, ApoC3 peptide … E70G (human, not fully specified (bridges); also: cyclic constrained)
T6 peptide: DKFSEFWDLDPGV
In short: as §1

ApoC3 peptide … V71G = ApoC3 peptide … V71G (human, cyclic constrained)
In short: as §1

ApoC3 peptide … D59H = target: T7, ApoC3 peptide … D59H (human, cyclic constrained)
T7 peptide: HKFSEFWDLDPEV
In short: as §1

ApoC3 peptide … F64H = target: T8, ApoC3 peptide … F64H (human, not fully specified (bridges); also: cyclic constrained)
T8 peptide: DKFSEHWDLDPEV
In short: as §1

ApoC3 peptide … F61I = target: T9, ApoC3 peptide … F61I (human, cyclic constrained)
T9 peptide: DKISEFWDLDPEV
In short: as §1

ApoC3 peptide … D59K = target: T10, ApoC3 peptide … D59K (human, cyclic constrained)
T10 peptide: KKFSEFWDLDPEV
In short: as §1

ApoC3 peptide … S62K = ApoC3 peptide … S62K (human, cyclic constrained)
In short: as §1

ApoC3 peptide … W65L = target: T11, ApoC3 peptide … W65L (human, not fully specified (bridges); also: cyclic constrained, ring type and places not given here)
T11 peptide: DKFSEFLDLDPEV
In short: as §1

ApoC3 peptide … D66L = target: T12, ApoC3 peptide … D66L (human, not fully specified (bridges); also: cyclic constrained)
T12 peptide: DKFSEFWLLDPEV
In short: as §1

ApoC3 peptide … D68L = target: T13, ApoC3 peptide … D68L (human, cyclic constrained)
T13 peptide: DKFSEFWDLLPEV
In short: as §1

ApoC3 peptide … P69L = target: T14, ApoC3 peptide … P69L (human, not fully specified (bridges); also: cyclic constrained)
T14 peptide: DKFSEFWDLDLEV
In short: as §1

ApoC3 peptide … S62M = ApoC3 peptide … S62M (human, cyclic constrained)
In short: as §1

ApoC3 peptide … D66M = target: T15, ApoC3 peptide … D66M (human, not fully specified (bridges); also: cyclic constrained)
T15 peptide: DKFSEFWMLDPEV
In short: as §1

ApoC3 peptide … D66N = target: T16, ApoC3 peptide … D66N (human, not fully specified (bridges); also: cyclic constrained)
T16 peptide: DKFSEFWNLDPEV
In short: as §1

ApoC3 peptide … V71N = ApoC3 peptide … V71N (human, cyclic constrained)
In short: as §1

ApoC3 peptide … K60P = target: T17, ApoC3 peptide … K60P (human, not fully specified (bridges); also: cyclic constrained)
T17 peptide: DPFSEFWDLDPEV
In short: as §1

ApoC3 peptide … S62Q = ApoC3 peptide … S62Q (human, cyclic constrained)
In short: as §1

ApoC3 peptide … E70Q = target: T18, ApoC3 peptide … E70Q (human, not fully specified (bridges); also: cyclic constrained)
T18 peptide: DKFSEFWDLDPQV
In short: as §1

ApoC3 peptide … K60R = target: T19, ApoC3 peptide … K60R (human, not fully specified (bridges); also: cyclic constrained)
T19 peptide: DRFSEFWDLDPEV
In short: as §1

ApoC3 peptide … S62R = ApoC3 peptide … S62R (human, cyclic constrained)
In short: as §1

ApoC3 peptide … D59T = target: T20, ApoC3 peptide … D59T (human, cyclic constrained)
T20 peptide: TKFSEFWDLDPEV
In short: as §1

ApoC3 peptide … K60T = target: T21, ApoC3 peptide … K60T (human, not fully specified (bridges); also: cyclic constrained)
T21 peptide: DTFSEFWDLDPEV
In short: as §1

ApoC3 peptide … W65T = target: T22, ApoC3 peptide … W65T (human, not fully specified (bridges); also: cyclic constrained, ring type and places not given here)
T22 peptide: DKFSEFTDLDPEV
In short: as §1

ApoC3 peptide … K60V = target: T23, ApoC3 peptide … K60V (human, not fully specified (bridges); also: cyclic constrained)
T23 peptide: DVFSEFWDLDPEV
In short: as §1

ApoC3 peptide … E70V = target: T24, ApoC3 peptide … E70V (human, cyclic constrained)
T24 peptide: DKFSEFWDLDPVV
In short: as §1

ApoC3 peptide … K60W = target: T25, ApoC3 peptide … K60W (human, not fully specified (bridges); also: cyclic constrained)
T25 peptide: DWFSEFWDLDPEV
In short: as §1

ApoC3 peptide … P69W = ApoC3 peptide … P69W (human, cyclic constrained)
In short: as §1

ApoC3 peptide … S62Y = ApoC3 peptide … S62Y (human, cyclic constrained)
In short: as §1

ApoC3 peptide … D68Y = ApoC3 peptide … D68Y (human, cyclic constrained)
In short: as §1

ApoC3 peptide … P69Y = ApoC3 peptide … P69Y (human, cyclic constrained)
In short: as §1

% of binding to wild-type peptide (ApoC3 peptide … F61A): 41.1%
% of binding to wild-type peptide (ApoC3 peptide … K60C): 84%
% of binding to wild-type peptide (ApoC3 peptide … F61D): 31.3%
% of binding to wild-type peptide (ApoC3 peptide … F64D): 220%
% of binding to wild-type peptide (ApoC3 peptide … W65D): 130%
% of binding to wild-type peptide (ApoC3 peptide … E70D): 13.8%
% of binding to wild-type peptide (ApoC3 peptide … E63F): 8.5%
% of binding to wild-type peptide (ApoC3 peptide … F61G): 25.9%
% of binding to wild-type peptide (ApoC3 peptide … E70G): 1.26%
% of binding to wild-type peptide (ApoC3 peptide … V71G): 109%
% of binding to wild-type peptide (ApoC3 peptide … D59H): 85.8%
% of binding to wild-type peptide (ApoC3 peptide … F64H): 107%
% of binding to wild-type peptide (ApoC3 peptide … F61I): 44.3%
% of binding to wild-type peptide (ApoC3 peptide … D59K): 45.6%
% of binding to wild-type peptide (ApoC3 peptide … S62K): 11.1%
% of binding to wild-type peptide (ApoC3 peptide … W65L): 18.5%
% of binding to wild-type peptide (ApoC3 peptide … D66L): 0%
% of binding to wild-type peptide (ApoC3 peptide … D68L): 0%
% of binding to wild-type peptide (ApoC3 peptide … P69L): 36.8%
% of binding to wild-type peptide (ApoC3 peptide … S62M): 63.5%
% of binding to wild-type peptide (ApoC3 peptide … D66M): 0.08%
% of binding to wild-type peptide (ApoC3 peptide … D66N): 0%
% of binding to wild-type peptide (ApoC3 peptide … V71N): 98.7%
% of binding to wild-type peptide (ApoC3 peptide … K60P): 157%
% of binding to wild-type peptide (ApoC3 peptide … S62Q): 111%
% of binding to wild-type peptide (ApoC3 peptide … E70Q): 2.1%
% of binding to wild-type peptide (ApoC3 peptide … K60R): 105%
% of binding to wild-type peptide (ApoC3 peptide … S62R): 37.2%
% of binding to wild-type peptide (ApoC3 peptide … D59T): 101%
% of binding to wild-type peptide (ApoC3 peptide … K60T): 149%
% of binding to wild-type peptide (ApoC3 peptide … W65T): 105%
% of binding to wild-type peptide (ApoC3 peptide … K60V): 106%
% of binding to wild-type peptide (ApoC3 peptide … E70V): 0.27%
% of binding to wild-type peptide (ApoC3 peptide … K60W): 78.6%
% of binding to wild-type peptide (ApoC3 peptide … P69W): 13.7%
% of binding to wild-type peptide (ApoC3 peptide … S62Y): 16.3%
% of binding to wild-type peptide (ApoC3 peptide … D68Y): 0%
% of binding to wild-type peptide (ApoC3 peptide … P69Y): 52%
B1: anti-ApoC3 antibody 6A6 (antibody, V domains shown)
VH: EVQLVESGGGLVQPGGSLRLSCAASGFTFSSYAGRWVRQVPGKGLEWVSSINAGGGSTSYADSVKGRFTISRDNAKNTLYLQMNSLKPEDTAKYYCTQNSYRYWGQGTRVAVSS
VL: DVVLTQTPGSLSVVPGESASISCKASQSLIHTDGKTYLYWLLQKPGQRPQLLIYQVSSHESGVPDRFTGSGSGTDFTLKISGVKAEDAGVYYCAQATYNPRTFGQGTKLEIK
notes: it was detected with goat anti-human IgG (Fc); also called mAb 6A6; llama antibody 6A6
